± gives the uncertainty stated by the source.
Experiment: protein stability index of a GFP-peptide fusion (yeast GPS) (PSI 1-4); higher = more stable; sorted into four equal gates, so the index is relative within each strain
In short: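 Plasmids in a pooled yeast library fused tiled 17-residue yeast protein peptides downstream of GFP and also expressed Cherry. Mid-log cultures grown without leucine were sorted into four equal gates by GFP/Cherry fluorescence ratio. Each gate's plasmids were PCR-amplified and Illumina-sequenced, and reads were matched to strains by barcodes. The protein stability index is derived by multiplying each gate's read frequency by its gate number and summing the results.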

| Sequence | protein stability index (doa10∆) | protein stability index (pdr5∆) | protein stability index (san1∆) | protein stability index (ubr1∆) |
| --- | --- | --- | --- | --- |
| IRSSSVSLVAEATSNTN [MED4] | 1.89 ± 0.076 | 1.63 ± 0.061 | 2.12 ± 0.098 | 1.33 ± 0.036 |
| YLKGATGHSQGLVTAVA [FAS1] |  |  |  | 3.86 ± 0.23 |
| ISLHENKLSGILADEMG [ISW2] | 2.81 ± 0.085 | 2.16 ± 0.069 | 2.71 ± 0.084 | 2.44 ± 0.1 |
| NPEPNKKNIQKAKSNQT [IRR1] | 2.25 ± 0.062 | 2.43 ± 0.062 | 2.56 ± 0.13 | 2.56 ± 0.051 |
| NLKLISVSLVDEFPSEL [SIR4] | 2.57 ± 0.061 | 2.6 ± 0.052 | 2.5 ± 0.06 | 2.6 ± 0.033 |
| CIKKIMENNEPAMAMED [SRB8] | 3.12 ± 0.072 | 3.15 ± 0.079 | 3.13 ± 0.059 | 3.08 ± 0.069 |
| TKEKVNGASVPINLHPS [RPL26A] | 2.54 ± 0.067 | 2.73 ± 0.078 | 2.92 ± 0.07 | 2.93 ± 0.064 |
| EEGEYKNAANTEGHKGH [ISW2] | 3.31 ± 0.062 | 3.16 ± 0.069 | 3.31 ± 0.064 | 3.21 ± 0.053 |
| NLNELESQLQMDRTSLR [SMC3] | 2.57 ± 0.15 | 2.59 ± 0.16 | 2.5 ± 0.22 |  |
| IVPLHSPFLMGHPMTKS [SEC65] | 2.76 ± 0.083 | 2.57 ± 0.07 | 2.57 ± 0.079 | 2.79 ± 0.055 |
| RRLHDENLMVQRTCLMT [YCS4] | 2.43 ± 0.064 | 2.44 ± 0.057 | 2.45 ± 0.058 | 2.24 ± 0.047 |
| VPPVENFPVRQWSIEIV [TAF14] | 3.15 ± 0.064 | 2.55 ± 0.053 | 3.2 ± 0.042 | 2.82 ± 0.051 |
| KTIVTGGNGPEDFQQHE [RPO26] | 3.29 ± 0.069 | 3.33 ± 0.055 | 3.32 ± 0.056 | 3.31 ± 0.039 |
| ATAAESDVAKQLAALGY [RPL16A] | 2.98 ± 0.042 | 2.91 ± 0.056 | 3.18 ± 0.045 | 3.2 ± 0.048 |
| VVTSSVAESFTDEADSS [SNF2] | 3.03 ± 0.095 | 2.98 ± 0.1 | 3.15 ± 0.075 | 3.01 ± 0.084 |
| EESIKIYPLIKPGSTVM [UBP6] | 2.94 ± 0.18 | 3.01 ± 0.093 |  | 2.96 ± 0.17 |
| TDSDFAKYHAKLNKKLQ [SRP68] | 2.97 ± 0.059 | 3.12 ± 0.055 | 2.84 ± 0.043 | 3 ± 0.05 |
| RRKKILNEIELDNLKLK [GRR1] | 3.04 ± 0.11 | 3.04 ± 0.086 | 2.76 ± 0.093 | 2.87 ± 0.068 |
| CVVLGCERRSTLKLQDT [PRE6] | 1.78 ± 0.074 | 1.66 ± 0.073 | 1.91 ± 0.13 | 1.28 ± 0.062 |
| YGFSNKEYISRLWHTLK [SNF5] | 1.57 ± 0.098 | 2.56 ± 0.21 | 2.39 ± 0.2 | 1.19 ± 0.13 |
| TVAVMSYSGYDIEDALV [RET1] | 2.7 ± 0.16 | 2.15 ± 0.11 | 1.97 ± 0.16 | 2.83 ± 0.072 |
| NVNLDDYPDDSGWTPFH [NAS6] | 3 ± 0.091 | 2.91 ± 0.069 | 2.92 ± 0.061 | 2.96 ± 0.066 |
| YNGRGARERKTATYNDN [SNF2] | 3 ± 0.069 | 2.54 ± 0.074 | 2.69 ± 0.074 | 2.69 ± 0.071 |
| TRAKIGGLNDPRLGSID [RPO21] | 3.03 ± 0.11 | 2.22 ± 0.077 | 2.58 ± 0.098 | 2.37 ± 0.083 |
| TEDIRIRAQNFKSALAN [RRP6] | 2.35 ± 0.067 | 2.41 ± 0.091 | 2.56 ± 0.1 | 2.73 ± 0.053 |

| Sequence | protein stability index (doa10∆) | protein stability index (pdr5∆) | protein stability index (san1∆) | protein stability index (ubr1∆) |
| --- | --- | --- | --- | --- |
| ERSDLLPYLSDTCAVSF [YJR042W/NUP85] | 2.31 ± 0.099 | 2.46 ± 0.06 | 2.59 ± 0.076 | 2.45 ± 0.041 |
| FTPKLIYDFITLFSSIE [ECM29] | 2.06 ± 0.073 | 2.1 ± 0.056 | 2.17 ± 0.11 | 2.38 ± 0.053 |
| MTPLLVNCLELLINTNF [PCI8] | 1.6 ± 0.037 | 1.6 ± 0.042 | 1.48 ± 0.078 | 1.42 ± 0.057 |
| IKEIINASKVISTPIIN [RPO31] | 3.08 ± 0.11 | 1.88 ± 0.17 | 1.03 ± 0.18 | 1.53 ± 0.25 |
| SETFLQFYVKRWKRFTI [CDC53] | 2.39 ± 0.1 | 2.74 ± 0.063 | 1.73 ± 0.1 | 2.3 ± 0.074 |
| KTTDHLFDAAFYMKKDA [RPO31] | 3 ± 0.075 | 3.21 ± 0.071 | 3.21 ± 0.05 | 3.05 ± 0.054 |
| DVVGTLSRNGKPVMEVT [FAS1] | 2.62 ± 0.13 | 2.81 ± 0.13 | 2.65 ± 0.12 | 2.63 ± 0.08 |
| DDDQIESLKKSPIFEVL [ARP9] | 3.16 ± 0.064 | 3.15 ± 0.046 | 3.06 ± 0.033 | 3.2 ± 0.04 |
| IAEGKSKQDASPKPYAV [RPL8B] | 3.02 ± 0.077 | 3.38 ± 0.063 | 3.12 ± 0.06 | 3.23 ± 0.049 |
| LNLFSNVLKAPFIKSES [SIR4] | 1.67 ± 0.061 | 1.75 ± 0.087 | 1.26 ± 0.13 | 1.79 ± 0.056 |
| DKYHPGYFGKVGMRYFH [RPL28] | 3.23 ± 0.062 | 2.99 ± 0.072 | 2.99 ± 0.083 | 2.96 ± 0.044 |
| DTFVHVTDLSGKETIAR [RPS14B] | 2.88 ± 0.087 | 2.98 ± 0.066 | 2.83 ± 0.062 | 2.98 ± 0.058 |
| HVLKKNPLKNKQVLLRL [RPL4A] | 1.43 ± 0.15 | 1.79 ± 0.086 | 1.3 ± 0.13 | 2.38 ± 0.088 |
| LSHENNVMLEKIKDNKE [RPT5] | 2.49 ± 0.063 | 2.9 ± 0.054 | 2.46 ± 0.054 | 2.71 ± 0.045 |
| LESYLIVHHPYQSLKQI [SSN8] | 2.33 ± 0.052 | 2.46 ± 0.059 | 2.29 ± 0.053 | 2.38 ± 0.044 |
| LKRYCCRRMILTHVDLI [RPB10] |  | 1.54 ± 0.11 |  | 1.57 ± 0.12 |
| ENYDAKIELEKKEKWAR [YIL149C/MLP2] | 3.2 ± 0.08 | 3.2 ± 0.12 | 2.67 ± 0.12 | 3.12 ± 0.067 |
| FNNQGKLDLFKYFTELS [MED1] | 3.07 ± 0.092 | 2.83 ± 0.072 | 2.92 ± 0.056 | 2.88 ± 0.092 |
| VPPIASPQQFLRAHTDD [PRE2] | 2.02 ± 0.068 | 2.72 ± 0.063 | 2.17 ± 0.11 | 2.6 ± 0.087 |
| LEQLAQHTTESDNISRK [RPB2] | 3.33 ± 0.12 | 3.35 ± 0.12 | 3.01 ± 0.076 | 3.11 ± 0.13 |
| VFGASDKQAEGTPLFTF [YOR098C/NUP1] | 2.83 ± 0.074 | 2.86 ± 0.087 | 3 ± 0.097 | 3.21 ± 0.081 |
| ANAAKRAEAKAQGVAVQ [RPL21A] | 2.55 ± 0.13 | 1.96 ± 0.13 | 2.06 ± 0.28 | 1.92 ± 0.14 |
| FYMLNAGIRPKFILALN [RPN1] | 2.22 ± 0.16 | 1.81 ± 0.078 | 1.78 ± 0.085 | 1.37 ± 0.058 |
| KLSKVQLYEDLCRYEDT [MED4] | 2.88 ± 0.069 | 3.29 ± 0.12 | 3.32 ± 0.11 | 3.21 ± 0.071 |
| VYDFYGRHVATCSSDQH [YGL100W/SEH1] | 2.75 ± 0.068 | 2.32 ± 0.06 | 2.43 ± 0.072 | 2.2 ± 0.049 |

Source: the supplement of paper PMC9732359
